According to the supplement of paper PMC6757056:
± gives the standard deviation of the averaged measurements.

B1: library; a variant is named by its letters at N, in order (parent)
chain: GCUGUCACCGGAAUACCAGCAUCGUCUUGAUGCCCUUGGAAGUCCGGUCUGAUGAGUCCNNNNNGGACGAAACAGC

Assays:
theophylline [1] = variants of: B1; assay: FACS-Seq fitted mean relative fluorescence mCherry/BFP without ligand (log10 relative fluorescence); higher = higher reporter protein expression; settings: HEK293T, ligand present: no
Procedure, shortened: (§1)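 With or without ligand for 48 h, enriched HEK293T libraries carrying a lentiviral ribozyme-switch mCherry reporter and EF1α-BFP were sorted into 6 mCherry/BFP bins. Bin genomic DNA was amplified by PCR, barcoded and sequenced on MiSeq. Fluorescence was taken from normal fits to the resulting bin counts. Each fitted mean of log10(mCherry/BFP) was scaled to five spiked-in control ribozymes.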

theophylline [2] = variants of: B1; assay: normalized RNA/DNA level with ligand (relative to sTRSVctl = 100) (log10 (% of sTRSVctl)); higher = less ribozyme self-cleavage, higher mRNA level; settings: ligand concentration (+) RNA-Seq: 5 mM, HEK293T, reporter: mCherry (pCS4076), ligand present: yes
Procedure, shortened: (§2)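 RNA level was computed as RNA reads over DNA reads divided by a spiked-in non-cleaving sequence or by the top sequences, then scaled and log-transformed. Scaling was ×100 with log10, the top group was 25 sequences, and the threshold was ≥100 DNA reads. The reads came from HEK293T cells transfected at 4 µg per 6-well well with ribozyme switch library plasmids (mCherry, or eGFP in some ligand experiments). Total RNA was extracted with EDTA 72 h after transfection, with any ligand added 1 h before it.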

theophylline [3] = variants of: B1; assay: normalized RNA/DNA level without ligand (relative to sTRSVctl = 100) (log10 (% of sTRSVctl)); higher = less ribozyme self-cleavage, higher mRNA level; settings: HEK293T, reporter: mCherry (pCS4076), ligand present: no
Procedure, shortened: as §2

theophylline [4] = variants of: B1; assay: FACS-Seq fitted mean relative fluorescence mCherry/BFP with ligand (log10 relative fluorescence); ligand concentration (+) FACS-Seq: 1 mM; higher = higher reporter protein expression; settings: HEK293T, ligand present: yes
Procedure, shortened: as §1

Variant | FACS-Seq fitted mean (log10) (theophylline [1]) | normalized RNA/DNA level with ligand (log10) (theophylline [2]) | normalized RNA/DNA level without ligand (log10) (theophylline [3]) | FACS-Seq fitted mean (log10) (theophylline [4])
CCCAA | 0.563 ± 0.0093 | 2.012 ± 0.0096 | 1.82 ± 0.13 | 0.684 ± 0.021
AGCCU | 0.951 ± 0.011 | 1.98 ± 0.023 | 1.91 ± 0.11 | 1.06 ± 0.071
UCUCC | 0.732 ± 0.037 | 1.93 ± 0.04 | 1.95 ± 0.023 | 0.7862 ± 0.0054
UAGAC | 0.814 ± 0.036 | 1.91 ± 0.03 | 1.91 ± 0.09 | 0.723 ± 0.008
AUAUC | 0.978 ± 0.081 | 1.912 ± 0.018 | 1.94 ± 0.048 | 1.06 ± 0.012
CUAGA | 0.973 ± 0.064 | 1.96 ± 0.084 | 1.83 ± 0.04 | 0.9812 ± 0.0091
AGCGU | -0.0881 ± 0.074 | 2.01 ± 0.027 | 1.82 ± 0.055 | 0.017 ± 0.14
CCAAU | 0.688 ± 0.1 | 1.95 ± 0.058 | 1.64 ± 0.14 | 0.7987 ± 0.0017
AUUCC | 0.959 ± 0.011 | 1.99 ± 0.1 | 1.95 ± 0.072 | 0.909 ± 0.08
CAACU | 0.64 ± 0.013 | 1.98 ± 0.048 | 1.73 ± 0.17 | 0.815 ± 0.097
UGCAC | 0.938 ± 0.039 | 2.04 ± 0.11 | 2.01 ± 0.022 | 0.991 ± 0.051
CCUCC | 0.993 ± 0.035 | 2.092 ± 0.0026 | 2.0411 ± 0.0014 | 0.89 ± 0.046
GAUGG | -0.543 ± 0.056 | 2 ± 0.062 | 1.8 ± 0.022 | -0.332 ± 0.0071
UCCCC | 1.11 ± 0.13 | 2.005 ± 0.019 | 2.01 ± 0.053 | 1.06 ± 0.032
UCAAU | 0.686 ± 0.07 | 2 ± 0.028 | 1.83 ± 0.095 | 0.789 ± 0.093
CGCGU | 0.348 ± 0.12 | 1.91 ± 0.11 | 1.842 ± 0.0033 | 0.441 ± 0.23
UCUGU | 0.6475 ± 0.0019 | 2.099 ± 0.014 | 2.01 ± 0.1 | 0.6442 ± 0.0018
ACGUU | 0.575 ± 0.11 | 2.05 ± 0.044 | 1.79 ± 0.042 | 0.657 ± 0.051

Variant | FACS-Seq fitted mean (log10) (theophylline [1]) | normalized RNA/DNA level with ligand (log10) (theophylline [2]) | normalized RNA/DNA level without ligand (log10) (theophylline [3]) | FACS-Seq fitted mean (log10) (theophylline [4])
CCUUA | 0.654 ± 0.02 | 1.992 ± 0.0039 | 1.73 ± 0.1 | 0.707 ± 0.035
CAGGU | 0.996 ± 0.18 | 2 ± 0.03 | 1.96 ± 0.041 | 0.848 ± 0.048
ACUGC | 0.883 ± 0.038 | 2.01 ± 0.031 | 1.95 ± 0.058 | 0.793 ± 0.067
UACCU | -0.0361 ± 0.0029 | 1.988 ± 0.00013 | 1.99 ± 0.099 | 0.0166 ± 0.074
CACCC | 0.8 ± 0.07 | 1.92 ± 0.06 | 1.93 ± 0.024 | 0.762 ± 0.018
AAAAA | -0.362 ± 0.072 | 1.85 ± 0.075 | 1.11 ± 0.061 | 0.356 ± 0.066
UGAUU | 0.448 ± 0.028 | 1.96 ± 0.071 | 1.7 ± 0.12 | 0.437 ± 0.11
AAACA | -0.0142 ± 0.16 | 1.9113 ± 0.00046 | 1.72 ± 0.14 | 0.172 ± 0.072
UAAAG | 0.272 ± 0.033 | 2.041 ± 0.007 | 1.84 ± 0.11 | 0.497 ± 0.037
UACCA | 0.405 ± 0.01 | 1.9 ± 0.086 | 1.82 ± 0.098 | 0.436 ± 0.11
CGGGA | 0.508 ± 0.043 | 2.01 ± 0.033 | 1.74 ± 0.071 | 0.753 ± 0.077
AAUUG | 0.229 ± 0.1 | 2.02 ± 0.12 | 1.75 ± 0.15 | 0.292 ± 0.011
UAAUA | 0.553 ± 0.011 | 2.03 ± 0.11 | 1.56 ± 0.15 | 0.868 ± 0.015
UGGGA | -0.00768 ± 0.057 | 2.02 ± 0.07 | 1.6195 ± 0.0012 | 0.178 ± 0.054
CACAC | 0.945 ± 0.11 | 2.02 ± 0.044 | 1.88 ± 0.11 | 1.03 ± 0.2
AAUCG | 0.941 ± 0.16 | 2.06 ± 0.06 | 1.87 ± 0.1 | 0.953 ± 0.04
UCCGU | 0.694 ± 0.021 | 2.029 ± 0.013 | 2.03 ± 0.14 | 0.619 ± 0.023
AUCGU | 0.902 ± 0.057 | 2.03 ± 0.13 | 1.93 ± 0.042 | 0.848 ± 0.063
